According to publication PMC9482650, “Quantitative fragmentomics allow affinity mapping of interactomes” (Nature Communications, 2022):

B1: TRAF7, Q6Q0C0 (peptide)
chain: VDSTVKVWTC
B2: BPIFA2, Q96DR5 (peptide)
chain: QHKTQLQTLI
B3: ABCA7, Q8IZY2 (peptide)
chain: DDPSTAETVL
B4: GJD4, Q96KN9 (peptide)
chain: HLRARKSEWV

target: T1, ARHGEF11, O15085; assay: holdup assay; parameters: key: below the threshold = too weak to quantify, mostly under pKd 3.1 to 4; conditions: plain residues with an end cap or a label only (N-terminal biotin on a linker: ado-ado)
T1 sequence (O15085 42-136, limits assumed, looked up): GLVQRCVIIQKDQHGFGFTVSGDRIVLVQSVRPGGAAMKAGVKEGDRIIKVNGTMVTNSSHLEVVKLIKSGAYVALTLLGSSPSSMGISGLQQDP

pKd	Binder
4.21	B1
3.7	B2
3.98	B3
below the threshold	B4

target: DLG1_1, Q12959; assay: holdup assay; parameters: key: below the threshold = too weak to quantify, mostly under pKd 3.1 to 4; conditions: plain residues with an end cap or a label only (N-terminal biotin on a linker: ado-ado)

pKd	Binder
below the threshold	B1
4.34	B2
below the threshold	B3
below the threshold	B4

target: DLG2_3, Q15700; assay: holdup assay; parameters: key: below the threshold = too weak to quantify, mostly under pKd 3.1 to 4; conditions: plain residues with an end cap or a label only (N-terminal biotin on a linker: ado-ado)

pKd	Binder
3.73	B1
below the threshold	B2
3.88	B3
4.16	B4

target: T2, DLG3_2, Q92796; assay: holdup assay; parameters: key: below the threshold = too weak to quantify, mostly under pKd 3.1 to 4; conditions: plain residues with an end cap or a label only (N-terminal biotin on a linker: ado-ado)
T2 sequence (Q92796 221-321, limits assumed, looked up): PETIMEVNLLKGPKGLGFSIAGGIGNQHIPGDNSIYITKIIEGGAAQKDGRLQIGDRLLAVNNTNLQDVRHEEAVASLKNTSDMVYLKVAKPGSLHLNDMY

pKd	Binder
4.18	B1
4.08	B2
4.37	B3
4.33	B4

target: DLG5_1, Q8TDM6; assay: holdup assay; parameters: key: below the threshold = too weak to quantify, mostly under pKd 3.1 to 4; conditions: plain residues with an end cap or a label only (N-terminal biotin on a linker: ado-ado)
Sequence (Q8TDM6 617-713): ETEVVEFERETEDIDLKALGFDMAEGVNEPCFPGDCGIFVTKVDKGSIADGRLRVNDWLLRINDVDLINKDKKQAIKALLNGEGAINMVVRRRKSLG

pKd	Binder
3.56	B1
3.48	B2
below the threshold	B3
below the threshold	B4

target: T3, FRMPD1, Q5SYB0; assay: holdup assay; parameters: key: below the threshold = too weak to quantify, mostly under pKd 3.1 to 4; conditions: plain residues with an end cap or a label only (N-terminal biotin on a linker: ado-ado)
T3 sequence (Q5SYB0 52-145, limits assumed, looked up): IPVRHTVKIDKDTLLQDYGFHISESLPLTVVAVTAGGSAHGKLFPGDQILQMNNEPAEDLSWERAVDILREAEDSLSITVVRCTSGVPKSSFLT

pKd	Binder
below the threshold	B1
below the threshold	B2
below the threshold	B3
below the threshold	B4

target: GIPC2, Q8TF65; assay: holdup assay; parameters: key: below the threshold = too weak to quantify, mostly under pKd 3.1 to 4; conditions: plain residues with an end cap or a label only (N-terminal biotin on a linker: ado-ado)
Sequence (Q8TF65 112-203): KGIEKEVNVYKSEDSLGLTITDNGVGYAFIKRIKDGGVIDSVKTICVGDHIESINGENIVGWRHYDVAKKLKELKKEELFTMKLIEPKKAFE

pKd	Binder
below the threshold	B1
3.49	B2
below the threshold	B3
below the threshold	B4

target: GORASP2, Q9H8Y8; assay: holdup assay; parameters: key: below the threshold = too weak to quantify, mostly under pKd 3.1 to 4; conditions: plain residues with an end cap or a label only (N-terminal biotin on a linker: ado-ado)

pKd	Binder
4.88	B1
3.77	B2
below the threshold	B3
5.57	B4

target: GRASP, Q7Z6J2; assay: holdup assay; parameters: key: below the threshold = too weak to quantify, mostly under pKd 3.1 to 4; conditions: plain residues with an end cap or a label only (N-terminal biotin on a linker: ado-ado)
Sequence (Q7Z6J2 96-193): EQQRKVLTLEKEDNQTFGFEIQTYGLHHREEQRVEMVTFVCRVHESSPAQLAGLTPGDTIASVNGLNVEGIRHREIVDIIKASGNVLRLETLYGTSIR

pKd	Binder
3.85	B1
4.04	B2
below the threshold	B3
4.01	B4

target: GRID2IP_1, A4D2P6; assay: holdup assay; parameters: key: below the threshold = too weak to quantify, mostly under pKd 3.1 to 4; conditions: plain residues with an end cap or a label only (N-terminal biotin on a linker: ado-ado)
Sequence (A4D2P6 1-87): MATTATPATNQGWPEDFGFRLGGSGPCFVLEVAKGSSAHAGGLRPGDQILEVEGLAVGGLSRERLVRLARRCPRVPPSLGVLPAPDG

pKd	Binder
below the threshold	B1
below the threshold	B2
below the threshold	B3
below the threshold	B4

target: Inadl_1, Q8NI35; assay: holdup assay; parameters: key: below the threshold = too weak to quantify, mostly under pKd 3.1 to 4; conditions: plain residues with an end cap or a label only (N-terminal biotin on a linker: ado-ado)
Sequence (Q8NI35 113-229): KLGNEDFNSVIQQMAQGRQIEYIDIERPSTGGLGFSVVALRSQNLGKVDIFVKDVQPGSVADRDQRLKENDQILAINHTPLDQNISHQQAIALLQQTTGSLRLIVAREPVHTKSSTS

pKd	Binder
3.67	B1
below the threshold	B2
below the threshold	B3
below the threshold	B4

target: Inadl_10, Q8NI35; assay: holdup assay; parameters: key: below the threshold = too weak to quantify, mostly under pKd 3.1 to 4; conditions: plain residues with an end cap or a label only (N-terminal biotin on a linker: ado-ado)
Sequence (Q8NI35 1673-1763): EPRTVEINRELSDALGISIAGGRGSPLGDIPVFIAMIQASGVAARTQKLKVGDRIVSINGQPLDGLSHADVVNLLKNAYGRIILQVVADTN

pKd	Binder
below the threshold	B1
below the threshold	B2
below the threshold	B3
below the threshold	B4

target: Inadl_5, Q8NI35; assay: holdup assay; parameters: key: below the threshold = too weak to quantify, mostly under pKd 3.1 to 4; conditions: plain residues with an end cap or a label only (N-terminal biotin on a linker: ado-ado)
Sequence (Q8NI35 673-780): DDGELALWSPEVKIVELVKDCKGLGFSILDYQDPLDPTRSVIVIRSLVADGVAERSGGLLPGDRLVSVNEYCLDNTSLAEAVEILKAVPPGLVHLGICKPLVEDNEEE

pKd	Binder
below the threshold	B1
below the threshold	B2
below the threshold	B3
5.11	B4

target: Inadl_9, Q8NI35; assay: holdup assay; parameters: key: below the threshold = too weak to quantify, mostly under pKd 3.1 to 4; conditions: plain residues with an end cap or a label only (N-terminal biotin on a linker: ado-ado)
Sequence (Q8NI35 1530-1615): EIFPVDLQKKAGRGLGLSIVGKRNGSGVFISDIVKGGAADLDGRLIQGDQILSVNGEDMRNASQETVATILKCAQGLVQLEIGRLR

pKd	Binder
3.68	B1
below the threshold	B2
below the threshold	B3
3.91	B4

target: T4, LIN7A, O14910; assay: holdup assay; parameters: key: below the threshold = too weak to quantify, mostly under pKd 3.1 to 4; conditions: plain residues with an end cap or a label only (N-terminal biotin on a linker: ado-ado)
T4 sequence (O14910 103-200, limits assumed, looked up): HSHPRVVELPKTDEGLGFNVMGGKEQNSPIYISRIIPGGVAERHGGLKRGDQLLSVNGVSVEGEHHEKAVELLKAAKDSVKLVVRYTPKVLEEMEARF

pKd	Binder
below the threshold	B1
below the threshold	B2
below the threshold	B3
below the threshold	B4

target: LNX1_1, Q8TBB1; assay: holdup assay; parameters: key: below the threshold = too weak to quantify, mostly under pKd 3.1 to 4; conditions: plain residues with an end cap or a label only (N-terminal biotin on a linker: ado-ado)
Sequence (Q8TBB1 261-371): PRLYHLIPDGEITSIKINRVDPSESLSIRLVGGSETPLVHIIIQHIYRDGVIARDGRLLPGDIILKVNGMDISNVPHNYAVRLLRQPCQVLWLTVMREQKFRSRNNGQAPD

pKd	Binder
below the threshold	B1
4.27	B2
below the threshold	B3
below the threshold	B4

target: MAGI2_2, Q86UL8; assay: holdup assay; parameters: key: below the threshold = too weak to quantify, mostly under pKd 3.1 to 4; conditions: plain residues with an end cap or a label only (N-terminal biotin on a linker: ado-ado)
Sequence (Q86UL8 410-522): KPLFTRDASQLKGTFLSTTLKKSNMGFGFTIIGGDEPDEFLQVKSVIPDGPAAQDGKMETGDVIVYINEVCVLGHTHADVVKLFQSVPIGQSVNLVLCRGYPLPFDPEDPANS

pKd	Binder
3.65	B1
4.43	B2
below the threshold	B3
below the threshold	B4

target: MAGI2_3, Q86UL8; assay: holdup assay; parameters: key: below the threshold = too weak to quantify, mostly under pKd 3.1 to 4; conditions: plain residues with an end cap or a label only (N-terminal biotin on a linker: ado-ado)
Sequence (Q86UL8 600-682): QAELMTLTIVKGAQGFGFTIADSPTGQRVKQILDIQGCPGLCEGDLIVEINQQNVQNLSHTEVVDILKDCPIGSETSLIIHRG

pKd	Binder
below the threshold	B1
below the threshold	B2
3.71	B3
below the threshold	B4

target: MAGI2_6, Q86UL8; assay: holdup assay; parameters: key: below the threshold = too weak to quantify, mostly under pKd 3.1 to 4; conditions: plain residues with an end cap or a label only (N-terminal biotin on a linker: ado-ado)
Sequence (Q86UL8 1141-1229): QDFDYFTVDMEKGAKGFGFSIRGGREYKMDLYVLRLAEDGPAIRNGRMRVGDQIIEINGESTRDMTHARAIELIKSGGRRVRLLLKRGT

pKd	Binder
below the threshold	B1
below the threshold	B2
3.83	B3
3.85	B4

target: MAST2, Q6P0Q8; assay: holdup assay; parameters: key: below the threshold = too weak to quantify, mostly under pKd 3.1 to 4; conditions: plain residues with an end cap or a label only (N-terminal biotin on a linker: ado-ado)
Sequence (Q6P0Q8 1099-1202): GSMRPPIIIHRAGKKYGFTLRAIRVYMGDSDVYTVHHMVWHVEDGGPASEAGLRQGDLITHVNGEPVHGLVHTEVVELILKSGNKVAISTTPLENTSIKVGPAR

pKd	Binder
3.74	B1
4.92	B2
5.64	B3
below the threshold	B4

target: T5, MPDZ_12, O75970; assay: holdup assay; parameters: key: below the threshold = too weak to quantify, mostly under pKd 3.1 to 4; conditions: plain residues with an end cap or a label only (N-terminal biotin on a linker: ado-ado)
T5 sequence (O75970 1857-1958, limits assumed, looked up): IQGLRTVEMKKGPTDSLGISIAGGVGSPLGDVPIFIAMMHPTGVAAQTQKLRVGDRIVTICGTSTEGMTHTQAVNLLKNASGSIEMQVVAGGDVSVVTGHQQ

pKd	Binder
3.52	B1
below the threshold	B2
below the threshold	B3
3.57	B4

target: NHERF2_2, Q15599; assay: holdup assay; parameters: key: below the threshold = too weak to quantify, mostly under pKd 3.1 to 4; conditions: plain residues with an end cap or a label only (N-terminal biotin on a linker: ado-ado)
Sequence (Q15599 142-238): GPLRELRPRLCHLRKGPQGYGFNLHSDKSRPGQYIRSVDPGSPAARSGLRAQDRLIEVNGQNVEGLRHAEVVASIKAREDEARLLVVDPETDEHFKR

pKd	Binder
below the threshold	B1
3.58	B2
4.42	B3
below the threshold	B4

target: NHERF4_4, Q86UT5; assay: holdup assay; parameters: key: below the threshold = too weak to quantify, mostly under pKd 3.1 to 4; conditions: plain residues with an end cap or a label only (N-terminal biotin on a linker: ado-ado)
Sequence (Q86UT5 464-550): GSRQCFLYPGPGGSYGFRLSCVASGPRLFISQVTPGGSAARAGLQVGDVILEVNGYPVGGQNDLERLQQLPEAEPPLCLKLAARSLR

pKd	Binder
3.62	B1
below the threshold	B2
below the threshold	B3
below the threshold	B4

target: T6, PCLO, Q9Y6V0; assay: holdup assay; parameters: key: below the threshold = too weak to quantify, mostly under pKd 3.1 to 4; conditions: plain residues with an end cap or a label only (N-terminal biotin on a linker: ado-ado)
T6 sequence (Q9Y6V0 4491-4600, limits assumed, looked up): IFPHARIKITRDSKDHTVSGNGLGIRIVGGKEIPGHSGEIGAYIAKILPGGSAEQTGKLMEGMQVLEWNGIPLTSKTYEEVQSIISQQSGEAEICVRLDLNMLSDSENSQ

pKd	Binder
below the threshold	B1
below the threshold	B2
below the threshold	B3
below the threshold	B4

target: PDZRN4_1, Q6ZMN7; assay: holdup assay; parameters: key: below the threshold = too weak to quantify, mostly under pKd 3.1 to 4; conditions: plain residues with an end cap or a label only (N-terminal biotin on a linker: ado-ado)
Sequence (Q6ZMN7 213-318): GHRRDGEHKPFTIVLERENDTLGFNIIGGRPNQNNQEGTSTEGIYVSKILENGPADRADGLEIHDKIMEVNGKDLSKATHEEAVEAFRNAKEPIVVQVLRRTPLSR

pKd	Binder
below the threshold	B1
below the threshold	B2
4.66	B3
below the threshold	B4

target: T7, PTPN13_1, Q12923; assay: holdup assay; parameters: key: below the threshold = too weak to quantify, mostly under pKd 3.1 to 4; conditions: plain residues with an end cap or a label only (N-terminal biotin on a linker: ado-ado)
T7 sequence (Q12923 1088-1188, limits assumed, looked up): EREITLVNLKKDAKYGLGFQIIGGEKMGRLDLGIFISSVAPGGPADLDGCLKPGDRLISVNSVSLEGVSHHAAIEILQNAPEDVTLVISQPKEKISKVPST

pKd	Binder
below the threshold	B1
below the threshold	B2
below the threshold	B3
below the threshold	B4

target: PTPN3, P26045; assay: holdup assay; parameters: key: below the threshold = too weak to quantify, mostly under pKd 3.1 to 4; conditions: plain residues with an end cap or a label only (N-terminal biotin on a linker: ado-ado)
Sequence (P26045 505-587): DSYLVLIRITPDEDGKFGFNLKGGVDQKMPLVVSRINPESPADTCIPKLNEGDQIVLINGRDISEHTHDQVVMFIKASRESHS

pKd	Binder
4.13	B1
3.99	B2
4.83	B3
3.99	B4

target: T8, SHANK1, Q9Y566; assay: holdup assay; parameters: key: below the threshold = too weak to quantify, mostly under pKd 3.1 to 4; conditions: plain residues with an end cap or a label only (N-terminal biotin on a linker: ado-ado)
T8 sequence (Q9Y566 658-767, limits assumed, looked up): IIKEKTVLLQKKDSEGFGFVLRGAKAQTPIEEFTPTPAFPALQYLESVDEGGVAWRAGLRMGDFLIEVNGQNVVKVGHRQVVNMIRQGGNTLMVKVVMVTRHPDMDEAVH

pKd	Binder
below the threshold	B1
4.02	B2
4.74	B3
below the threshold	B4

target: T9, TX1BP3, O14907; assay: holdup assay; parameters: key: below the threshold = too weak to quantify, mostly under pKd 3.1 to 4; conditions: plain residues with an end cap or a label only (N-terminal biotin on a linker: ado-ado)
T9 sequence (O14907 10-122, limits assumed, looked up): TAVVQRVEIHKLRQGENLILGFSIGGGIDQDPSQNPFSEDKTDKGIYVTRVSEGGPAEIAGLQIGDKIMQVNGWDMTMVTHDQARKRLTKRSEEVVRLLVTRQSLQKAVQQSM

pKd	Binder
below the threshold	B1
3.79	B2
below the threshold	B3
below the threshold	B4
